Three molecules from US20230056815A1 (VIELA BIO, published 2023) can be followed below.

The labels stand for the following.
B3: human soluble FLT3L (recombinant huFLT3L) (ligand, UniProt P49771 27-184, looked up)
chain: TQDCSFQHSPISSDFAVKIRELSDYLLQDYPVTVASNLQDEELCGGLWRLVLAQRWMERLKTVAGSKMQGLLERVNTEIHFVTKCAFQPPPSCLRFVQTNISRLLQETSEQLVALKPWITRQNFSRCLELQCQPDSSTLPPPWSPRPLEATAPTAPQP
notes: extracellular domain; also called rhuFLT3L; hFLT3L

The target in assay [1] is B3. Put plainly: Biacore, Fab.
Assay [2] has as its target T1, cynomolgus monkey soluble FLT3L (cynomolgus monkey).
T1 construct: extracellular domain; also called cyno sFLT3L; cyno FLT3L
Put plainly: Biacore, Fab.

Assay [3] has as its target B3. Nature of the assay: Biacore, Fab, steady-state.
Assay [4] addresses T1, cynomolgus monkey soluble FLT3L. Nature of the assay: Biacore, Fab, steady-state.
Assay [5] addresses B3. Put plainly: Biacore, Fab. The source holds these as a separate data set.
For assay [6], the target named is T1, cynomolgus monkey soluble FLT3L. Nature of the assay: Biacore, Fab. This is another data set of the same source.
Assay [7] deals with B3. Put plainly: Biacore, Fab, kinetic (koff/kon).
Assay [8] addresses T1, cynomolgus monkey soluble FLT3L. Nature of the assay: Biacore, Fab, kinetic (koff/kon).
The target of assay [9] is B3. Put plainly: Biacore.
The target in assay [10] is B3. Put plainly: cell-based or functional assay.
Assay [11] deals with T2, cynomolgus monkey FLT3L on CHO cells (cynomolgus monkey).
T2 construct: whole, on cells; also called cell surface cyno FLT3L
Put plainly: flow cytometry on CHO cells expressing full-length cyno FLT3L, PE anti-hu IgG. The procedure: (§1) Consistent with this, cell surface binding to human, cyno, and mouse FLT3L was evaluated by transfecting Chinese hamster ovary (CHO) cells with the respective full-length protein for each species. Candidate clones were incubated with FLT3L-expressing cell lines for 1 hour at 4° C. before being washed twice to remove unbound antibody. Cells were then incubated with PE-labeled goat anti-hu IgG secondary detection pAb to quantitate bound antibody which was measured by flow cytometric analysis of PE signal. The huFLT3-Fc construct, on a hu IgG backbone, was used as a positive control reagent for FLT3L expression as it cross reacts with cyno and mouse, in addition to human ligand.
(§2) As differences were apparent in the degree of receptor occupancy for each clone, both EC50 and max occupancy were noted (expressed as percent relative to FLT3-Fc) and taken into account in the final evaluation. Results are shown in Table 4 for human, cyno, and mouse FLT3L expressed in CHO cells.

Assay [12] has as its target T3, human FLT3L on the cell surface (human, UniProt P49771 27-235).
T3 construct: whole, on cells; The assay field of each row says which cells carried it; also called cell-surface FLT3L; huFLT3L-expressing CHO cells
T3 sequence (looked up): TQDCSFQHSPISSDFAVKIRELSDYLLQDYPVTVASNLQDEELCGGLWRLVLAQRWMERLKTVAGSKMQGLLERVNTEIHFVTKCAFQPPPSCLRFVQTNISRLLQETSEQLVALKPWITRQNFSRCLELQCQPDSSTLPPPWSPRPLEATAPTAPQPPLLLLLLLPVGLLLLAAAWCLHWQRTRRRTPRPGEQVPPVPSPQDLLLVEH
Put plainly: flow cytometry on CHO cells expressing full-length human FLT3L, PE anti-hu IgG. The procedure: as §1, §2

The target in the next assay is T4, mouse soluble FLT3L (mouse, UniProt P49772 27-189).
T4 sequence (looked up): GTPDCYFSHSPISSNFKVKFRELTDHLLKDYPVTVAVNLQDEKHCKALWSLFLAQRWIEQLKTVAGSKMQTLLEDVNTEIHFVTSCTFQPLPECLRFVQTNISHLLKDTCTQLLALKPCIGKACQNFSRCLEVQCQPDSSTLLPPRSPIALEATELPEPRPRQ
Nature of the assay: cell-based or functional assay.

Assay [13] has as its target B3. Put plainly: cell-based or functional assay. This is another data set of the same source.
Assay [14] has as its target T1, cynomolgus monkey soluble FLT3L. Put plainly: cell-based or functional assay.
Another assay concerns the target T5, mouse FLT3L on CHO cells (mouse, UniProt P49772 27-232).
T5 construct: whole, on cells; also called cell surface mouse FLT3L
T5 sequence (looked up): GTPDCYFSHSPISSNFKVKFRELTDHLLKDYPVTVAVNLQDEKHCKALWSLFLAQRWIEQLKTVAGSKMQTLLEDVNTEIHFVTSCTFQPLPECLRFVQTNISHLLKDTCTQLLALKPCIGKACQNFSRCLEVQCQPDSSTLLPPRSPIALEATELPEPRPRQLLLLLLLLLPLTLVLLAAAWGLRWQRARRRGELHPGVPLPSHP
Nature of the assay: flow cytometry on CHO cells expressing full-length mouse FLT3L, PE anti-hu IgG. The procedure:
as §1, §2

For assay [15], the target named is T6, FLT3 on RS4;11 cells (human, UniProt P36888 27-993).
T6 construct: whole, on cells; also called cell surface FLT3; CD135
T6 sequence (looked up): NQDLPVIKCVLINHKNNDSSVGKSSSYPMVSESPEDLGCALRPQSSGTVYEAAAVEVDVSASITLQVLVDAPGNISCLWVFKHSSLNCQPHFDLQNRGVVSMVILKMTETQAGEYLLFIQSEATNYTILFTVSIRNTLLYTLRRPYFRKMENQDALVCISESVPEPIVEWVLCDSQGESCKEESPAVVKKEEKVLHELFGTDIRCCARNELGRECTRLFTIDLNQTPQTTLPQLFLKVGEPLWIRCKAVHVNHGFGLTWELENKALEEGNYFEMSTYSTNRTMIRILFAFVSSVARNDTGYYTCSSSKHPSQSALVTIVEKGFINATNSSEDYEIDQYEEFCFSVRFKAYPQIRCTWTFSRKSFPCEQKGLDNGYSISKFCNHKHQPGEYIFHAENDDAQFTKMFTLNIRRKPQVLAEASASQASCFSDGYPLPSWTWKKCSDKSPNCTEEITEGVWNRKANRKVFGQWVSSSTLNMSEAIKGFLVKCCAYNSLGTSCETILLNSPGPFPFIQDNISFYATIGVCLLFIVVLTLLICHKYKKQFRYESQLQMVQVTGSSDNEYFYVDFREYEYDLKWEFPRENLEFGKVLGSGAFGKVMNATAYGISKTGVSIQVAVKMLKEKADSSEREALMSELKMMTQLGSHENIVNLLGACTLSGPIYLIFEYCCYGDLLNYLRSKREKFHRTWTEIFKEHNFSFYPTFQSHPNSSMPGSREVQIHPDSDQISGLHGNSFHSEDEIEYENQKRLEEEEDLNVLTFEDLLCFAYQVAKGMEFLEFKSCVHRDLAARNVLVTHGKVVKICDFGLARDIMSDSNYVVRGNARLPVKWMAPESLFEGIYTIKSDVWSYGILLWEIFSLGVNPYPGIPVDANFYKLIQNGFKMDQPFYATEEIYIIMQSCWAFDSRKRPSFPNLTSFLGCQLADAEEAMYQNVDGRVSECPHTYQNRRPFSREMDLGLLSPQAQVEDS
Put plainly: flow cytometry: biotinylated rhuFLT3L on RS4;11 cells, detected with BV421-streptavidin.

The target of another assay is T7, hFLT3 receptor (human, UniProt P36888 27-541, limits assumed).
T7 construct: The construct is not described
T7 sequence (looked up): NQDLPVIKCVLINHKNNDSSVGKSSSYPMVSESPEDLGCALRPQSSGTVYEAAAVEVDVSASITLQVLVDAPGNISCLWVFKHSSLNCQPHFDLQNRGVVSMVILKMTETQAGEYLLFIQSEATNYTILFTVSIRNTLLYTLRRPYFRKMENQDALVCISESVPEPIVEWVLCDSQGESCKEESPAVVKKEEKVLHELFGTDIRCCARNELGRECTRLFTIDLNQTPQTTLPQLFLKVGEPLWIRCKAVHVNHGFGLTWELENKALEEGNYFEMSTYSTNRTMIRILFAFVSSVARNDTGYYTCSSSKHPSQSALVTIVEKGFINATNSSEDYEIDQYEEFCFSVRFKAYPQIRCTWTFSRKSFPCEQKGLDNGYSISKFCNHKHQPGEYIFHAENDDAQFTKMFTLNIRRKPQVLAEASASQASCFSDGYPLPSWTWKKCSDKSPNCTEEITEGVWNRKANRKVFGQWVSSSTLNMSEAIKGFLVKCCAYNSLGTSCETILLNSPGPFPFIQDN
Nature of the assay: Biacore.

The target of assay [16] is T6, FLT3 on RS4;11 cells. Put plainly: cell-based or functional assay.

A value given as a limit tells only on which side of the number the result lay.

B1: CAT5D9 Fab (Fab, V domains shown)
VH: QVQLVQSGAEVKKPGSSVKVSCKISGGTFSSYALSWVRQAPGQGLEWMGGIIPVFRTASYAQKFQGRVTITVDESASTGYIELSSLKSEDTATYYCASNNYVWGSYRFWGQGTTVTVSS
VL: NFMLTQPHSVSESPGKTVTISCTRTSGNIAGYFVQWYQQRPGSSPTTVIYEDYQRPSGVPDRFSGSIDRSSNSASLTISGLKPDDEADYYCQSYDDTSQGVFGAGTKVTVL
notes: also called 5D9 parent
In the case of B1, the “fold KD against the remaining lead antibodies” value in assay [1] and in assay [2] was > 50 fold throughout. The Kd was determined as 1600 nM in assay [3]; 1610 nM in assay [4]; 1160 nM in [7]; 1160 nM in [8]; 1160 nM in assay [9]. Further, the koff in assay [5], in assay [6] and in assay [9] was 0.0707 s⁻¹ each time. For the same molecule, the kon in assay [5] was found to be 61000 M⁻¹ s⁻¹; in assay [6] it was 61000 M⁻¹ s⁻¹; in assay [9], 60000 M⁻¹ s⁻¹.

B2: Dyax3 antibody (IgG1 TM format) (antibody, V domains shown)
VH: EVQLLESGGGLVQPGGSLRLSCAASGFTFSMYEMRWVRQAPGKGLEWVSVIPSGGKTFYADSVKGRFTISRDNSKNTLYLQMNSLRAEDTAVYYCARYSRWFGQLGFYSHYAMDVWSQGTTVTVSS
VL: DIQMTQSPSSLSASVGDRVAITCRASQSIDTYLNWYQQKPGKAPKLLIYAASKLEDGVPSRFSGSGTGTDFTLTIRSLQPEDFASYFCQQSYSSPGITFGPGTKVEIK
notes: also called DTAX3
With B2, the “IC50 (nM) against 0.476 nM FLT3L, ERK phosphorylation in CD133+ stem cells” value in assay [10] is 2.4 nM. For the same molecule, the “IC50 (nM) against 0.476 nM FLT3L, MEK phosphorylation in CD133+ stem cells” value in [10] stood at 93 nM. Also, the EC50 in assay [11] stood at 1.8 nM; in assay [12] it was 0.27 nM; in the assay with mouse FLT3L on CHO cells, 0.39 nM. In addition, the “maximum occupancy (% relative to FLT3-Fc)” value in [11] was determined as 35%; in assay [12], 33%; in the assay with mouse FLT3L on CHO cells it was 16%. Moreover, the figures for the “IC50 (nM), inhibition of FLT3 downregulation on RS4;11 cells” value (in the assay with mouse soluble FLT3L; in assay [13]; in [14]) were 1490 nM, 54.8 nM and 3070 nM, respectively.
Turning to B3, the “EC50 (read off the curve)” value with FLT3 on RS4;11 cells [15] was ~0.1 nM. In the assay with hFLT3 receptor, this molecule registered a Kd of 22.3 nM, a koff of 0.00812 s⁻¹ and a kon of 360000 M⁻¹ s⁻¹. Further, in the assay with FLT3 on RS4;11 cells [16], the “fold decrease in Allophycocyanin (APC) MFI, an indicator of FLT3 expression, on RS4;11 cells” value came out at 25 fold.
